Data on one molecule can be found in US20130004490A1 (UNITED STATES OF AMERICA AS REPRESENTED BY THE SECRETARY …, published 2013).

The assay addresses T1, mouse ICAM-1 expressed on activated mouse endothelial cells (mouse, UniProt P13597 28-537).
T1 construct: whole, on cells
Nature of the assay: FITC-labeled γ3 carriers on activated endothelial cells, fluorescence microscopy, 1 h 37 C. As to the method: Binding of FITC-labeled γ3 carriers to activated HUVEC cells (bars) vs ICAM-1-negative 293 cells (dotted line) was quantified by fluorescence microscopy after 1 h incubation at 37° C., in the absence or presence of excess γ3, anti-ICAM, or γ3 scramble peptide. The γ3 carriers bound to native ICAM-1 expressed by both activated human and mouse endothelial cells, but not control 293 cells which are known to be voided of ICAM-1 expression (FIG. 5C).

T1 sequence (P13597 28-537): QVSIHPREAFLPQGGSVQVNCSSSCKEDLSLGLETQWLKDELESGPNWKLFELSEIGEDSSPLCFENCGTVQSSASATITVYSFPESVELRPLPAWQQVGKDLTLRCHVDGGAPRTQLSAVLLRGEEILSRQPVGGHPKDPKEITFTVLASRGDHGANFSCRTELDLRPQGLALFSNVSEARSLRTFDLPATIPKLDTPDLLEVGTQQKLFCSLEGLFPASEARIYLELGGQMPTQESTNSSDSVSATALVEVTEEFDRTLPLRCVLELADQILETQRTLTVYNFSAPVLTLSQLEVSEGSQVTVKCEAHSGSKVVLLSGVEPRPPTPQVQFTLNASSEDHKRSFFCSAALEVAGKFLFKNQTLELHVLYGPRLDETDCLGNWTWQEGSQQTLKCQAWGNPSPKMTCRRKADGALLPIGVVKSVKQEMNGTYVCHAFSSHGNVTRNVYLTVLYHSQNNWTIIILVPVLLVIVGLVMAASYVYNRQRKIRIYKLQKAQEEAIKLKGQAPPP

As to NNQKIVNLKEKVAQLEA (also called γ3 peptide; γ3 carriers) [ICAM-1 affinity peptide γ3, a 17-mer polypeptide derived from fibrinogen], the binding result is listed as “binds”.
